The values that follow come from US20120231013A1 (Amgen, published 2012).

Sequences and labels used below:
B1: recombinant human TIMP-3 (other, UniProt P35625 24-211, looked up)
chain: CTCSPSHPQDAFCNSDIVIRAKVVGKKLVKEGPFGTLVYTIKQMKMYRGFTKMPHVQYIHTEASESLCGLKLEVNKYQYLLTGRVYDGKMYTGLCNFVERWDQLTLSQRKGLNYRYHLGCNCKIKSCYYLPCFVTSKNECLWTDMLSNFGYPGYQSKHYACIRQKGGYCSWYRGWAPPDKSIINATDP

Test [1] addresses T1, MMP-13 (UniProt P45452 20-471, limits assumed). The test can be described thus: cell-based or functional assay.
The target of test [2] is T2, recombinant TIMP-3 (human or mouse; Table 2 does not say which).
T2 construct: The methods say 'human or mouse TIMP-3'
The test is described as follows: AlphaScreen, biotinylated TIMP-3, Assay 2. Here is the method:
(§1) Peptides were also evaluated by AlphaScreen® (Amplified Luminescent Proximity Homogeneous Assay; PerkinElmer, Waltham, Mass.) a very sensitive non-radioactive homogeneous assay technology that allows the screening of a large range of biological interactions and activities, substantially according to the manufacturer's instructions. Briefly, all dilutions are made in AlphaScreen® Buffer: [40 mM HEPES pH 7.5, 100 mM NaCl, 1 mM CaCl2, 0.1% BSA, 0.05% Tween-20]. The LRP-1 peptides are titrated in a separate polypropylene 96-well plate (Falcon) starting at 4 microM concentration and then diluted serially 3-fold for 12-points, with the last point buffer only. First 2 microL/well of protein titration curve is added to white, small volume, 384-well assay plate (Greiner Bio-One, Stonehouse, UK) in duplicate. Next, 2 microL of biotinylated (AFS, in-house conjmicroGation) recombinant human or mouse TIMP-3, is added at 12 nM (or 3 nM final assay concentration) to the assay plate. Lastly, in subdued light 4 microL of a mixture of streptavidin donor beads, anti-mouse IgG acceptor beads (PerkinElmer) both diluted to 20 microG/mL (10 microG/mL final assay concentration) and 2 nM (1 nM final concentration) rat-anti-HA (clone3F10)-HRP (Roche Diagnostics) is added to the plates. Plates containing 8 microL final assay volme are covered with TopSeal A (to prevent evaporation), spun quickly at 1000 rpm, and incubated overnight (covered with foil to prevent light exposure) before reading on Fusion plate reader (PerkinElmer) using AlphaScreen® parameters (excitation 680 nm and emission 520-620 nm). Data is analyzed using GraphPad Prism 4.01 software. Binding to TIMP-3 is reported as total signal (cps).

Another test deals with T3, recombinant mouse TIMP-3 (mouse, UniProt P39876 24-211).
T3 construct: also called MuTIMP-3
T3 sequence (looked up): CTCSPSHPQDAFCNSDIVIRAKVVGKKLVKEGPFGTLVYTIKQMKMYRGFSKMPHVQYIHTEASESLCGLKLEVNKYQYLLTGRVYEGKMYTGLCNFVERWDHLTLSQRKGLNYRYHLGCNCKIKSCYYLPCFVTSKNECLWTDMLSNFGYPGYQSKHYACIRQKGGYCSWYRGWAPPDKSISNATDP
The test can be described thus: direct ELISA, coated muTIMP-3. Here is the method:
(§2) After incubation, the coating solution is removed and replaced with 250 microL/well of blocking buffer (1% BSA, TBS [pH 7.5], 1 mM CaCl₂) and incubated with shaking for 1 hour at room temperature. The plates are then washed three times with 200 microL/well with wash buffer 1 (TBS [pH 7.5], 1 mM CaCl₂). The LRP-1 peptides are titrated in assay buffer (0.1% BSA, TBS [pH 7.5], 1 mM CaCl₂, 0.02% Tween-20) in a separate polypropylene non-treated round-bottom 96-well plate (BD Falcon™) starting at 1 microM concentration and then diluted serially 4-fold for 8-points, with the last point buffer only. Then 100 microL/well of the diluted LRP-1 peptide titration is added to the TIMP-3 coated plate and allowed to bind for 1.5 hour at room temperature with shaking. After incubation, the plate is washed three times with 200 microL/well of wash buffer 2 (TBS [pH 7.5], 1 mM CaCl₂, 0.02% Tween-20). […] The assay plate is then washed three times with 200 microL/well with wash buffer 2. The plate is developed by adding 100 microL/well of 1:1 mixture of TMB and H₂O₂ (Pierce, Fisher Thermo Scientific, Rockford Il.), the reaction is stopped by adding 100 microL/well 2NH₂SO₄ (VWR), and read on a SpectraMax microplate reader (Molecular Devices, Sunnyvale, Calif.) at OD450 nm using SOFTmax Pro software version 3.1.2. Data is analyzed using GraphPad Prism 4.01 software. Binding of LRP-1 peptides to TIMP-3 is expressed as binding EC50.
On the technique in general: An ELISA detects its analyte on a solid surface through an enzyme-linked reagent.

Test [3] addresses T2, recombinant TIMP-3 (human or mouse; …). The test is described as follows: binding ELISA, Assay 2.
The target is the same in test [4]. The test can be described thus: binding ELISA, Assay 3.
For test [5] the target is unchanged. The test can be described thus: AlphaScreen, biotinylated TIMP-3, Assay 1. On the procedure:
as §1

The target of test [6] is B1. The test is described as follows: cell-based or functional assay.
For test [7], the target named is T1, MMP-13. The test is described as follows: cell-based or functional assay. This is another data set of the same source.
In test [8] the target is B1. The test can be described thus: indirect ELISA, huTIMP-3 captured by anti-TIMP-3 clone 277128. Here is the method:
Then 100 microL/well of the diluted LRP-1 peptide titration is added to the TIMP-3 coated plate and allowed to bind for 1.5 hour at room temperature with shaking. After incubation, the plate is washed three times with 200 microL/well of wash buffer 2 (TBS [pH 7.5], 1 mM CaCl₂, 0.02% Tween-20). […] The assay plate is then washed three times with 200 microL/well with wash buffer 2. The plate is developed by adding 100 microL/well of 1:1 mixture of TMB and H₂O₂ (Pierce, Fisher Thermo Scientific, Rockford Il.), the reaction is stopped by adding 100 microL/well 2NH₂SO₄ (VWR), and read on a SpectraMax microplate reader (Molecular Devices, Sunnyvale, Calif.) at OD450 nm using SOFTmax Pro software version 3.1.2. Data is analyzed using GraphPad Prism 4.01 software. Binding of LRP-1 peptides to TIMP-3 is expressed as binding EC50.
After incubation, the plate contents are discarded and 250 microL/well of blocking buffer (1% BSA, TBS [pH 7.5], 1 mM CaCl₂) is added to the plate which is incubated with shaking for 1 hour at room temperature. The plate is then washed three times with 200 microL/well with wash buffer 1 (TBS [pH 7.5], 1 mM CaCl₂) followed by the addition of 100 microL of 20 nM recombinant human TIMP-3. The plate is incubated at room temperature for 1 hour. The LRP-1 peptides are titrated as described previously, and 100 microL/well of the diluted LRP-1 peptide titration is added to the TIMP-3 coated plate and allowed to bind for 1.5 hour at room temperature with shaking. After incubation, the plate is washed and the ELISA performed substantially as described previously for the direct binding ELISA.

Test [9] has as its target B1. The test is described as follows: direct ELISA, coated huTIMP-3. On the procedure: as §2
Test [10] has as its target T2, recombinant TIMP-3 (human or mouse; …). The test can be described thus: binding ELISA, Assay 1.

Where “and” joins values, the source holds several entries; their conditions need not be identical. Identical values can stand only once.

Regarding B1, the “IC50 of TIMP-3 inhibition of MMP-13 (fluorogenic substrate)” value in the test with MMP-13 [1] lay in the range of 0.5 to 1 nM.

B2: LRP-1 peptide LA24 (peptide)
chain: not shown
notes: Tags implied (Ni-NTA, anti-HA detection), not described
Take B2: the “total signal (cps)” value in test [2] was found to be 2000 cps; in test [5] it was 2200 cps. Also, the EC50 with recombinant mouse TIMP-3 was 66 nM; in test [3], ~500 nM; in test [4], ~1000 nM; with recombinant human TIMP-3 [8] it was 10 nM; with recombinant human TIMP-3 [9], 68 nM. Besides, the “% of the inhibitory activity of TIMP-3 + peptide compared to TIMP-3 alone, 16 nM” value (“% of the inhibitory activity … 16 nM” for short) with recombinant human TIMP-3 [6] came to 104%. Further, in the test with recombinant human TIMP-3 [6], the “% of the inhibitory activity of TIMP-3 + peptide compared to TIMP-3 alone, 80 nM” value (from here on “% of the inhibitory activity … 80 nM”) turned out to be 104%. Further, the “% of the inhibitory activity of TIMP-3 + peptide compared to TIMP-3 alone, 2000 nM” value (shortened to “% of the inhibitory activity … 2000 nM”) in the test with recombinant human TIMP-3 [6] worked out at 81%. Also, the “Direct Inhibition of MMP13 (% decrease), 1000 nM” value in the test with MMP-13 [7] was -22%.

B3: LRP-1 peptide LA3-4 (peptide)
chain: not shown
notes: as for B2
In the case of B3, the “total signal (cps)” value in [2] was 3500 cps; in test [5], 9000 cps. The EC50 in the test with recombinant mouse TIMP-3 was determined as 155 nM; in [3] it was 289 nM; in test [4] it was 500 nM; with recombinant human TIMP-3 [8], 81 nM; with recombinant human TIMP-3 [9], 226 nM. Moreover, in the test with recombinant human TIMP-3 [6], the “% of the inhibitory activity … 16 nM” value amounted to 104%. In addition, the “% of the inhibitory activity of TIMP-3 + peptide compared to TIMP-3 alone, 400 nM” value (from here on “% of the inhibitory activity … 400 nM”) in the test with recombinant human TIMP-3 [6] came out at 84%. In addition, the “% of the inhibitory activity … 2000 nM” value with recombinant human TIMP-3 [6] is 91%.

B4: LRP-1 peptide LA5-7 (peptide)
chain: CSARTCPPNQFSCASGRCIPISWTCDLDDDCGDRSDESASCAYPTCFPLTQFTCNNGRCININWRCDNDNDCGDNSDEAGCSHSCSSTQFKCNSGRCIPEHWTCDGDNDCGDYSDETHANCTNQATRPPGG
notes: as for B2
Turning to B4, the entries for the “total signal (cps)” value in test [2] and in test [5] were 8000 cps and 2000 cps, respectively. Moreover, the EC50 with recombinant mouse TIMP-3 stood at 74 nM; in [4], 350 nM; in the test with recombinant human TIMP-3 [8], 9 nM; in [10], 210 nM; with recombinant human TIMP-3 [9], 94 nM. Further, the “% of the inhibitory activity … 16 nM” value with recombinant human TIMP-3 [6] was found to be 101%. Besides, the “% of the inhibitory activity … 80 nM” value with recombinant human TIMP-3 [6] worked out at 99%. In the test with recombinant human TIMP-3 [6], the “% of the inhibitory activity … 400 nM” value came out at 93%. Also, the “% of the inhibitory activity … 2000 nM” value in the test with recombinant human TIMP-3 [6] was 68%. The “Direct Inhibition of MMP13 (% decrease), 1000 nM” value with MMP-13 [7] stood at 2%.

B5: LRP-1 peptide LA24-26 (peptide)
chain: not shown
notes: The end 3574 is inferred from the end of LA26
For the molecule B5, the results for the “total signal (cps)” value in [2] and in [5] were 120000 cps and 150000 cps, respectively. Also, the EC50 with recombinant mouse TIMP-3 was 15 nM; in test [3], 80 nM; in [4] it was 68 nM; in the test with recombinant human TIMP-3 [8], 8 nM; in [10], 46 nM and 26 nM; with recombinant human TIMP-3 [9], 28 nM. In addition, the “% of the inhibitory activity … 16 nM” value with recombinant human TIMP-3 [6] was 92%. Further, the “% of the inhibitory activity … 80 nM” value with recombinant human TIMP-3 [6] worked out at 95%. In addition, the “% of the inhibitory activity … 400 nM” value with recombinant human TIMP-3 [6] came to 105%. Further, in the test with MMP-13 [7], the “Direct Inhibition of MMP13 (% decrease), 1000 nM” value was 59%.

B6: LRP-1 peptide LA15-17 (peptide)
chain: CPLNYFACPSGRCIPMSWTCDKEDDCEHGEDETHCNKFCSEAQFECQNHRCISKQWLCDGSDDCGDGSDEAAHCEGKTCGPSSFSCPGTHVCVPERWLCDGDKDCADGADESIAAGCLYNST
notes: The end 2817 is inferred from the end of LA17
Take B6: the results for the “total signal (cps)” value in test [2] and in test [5] were 70000 cps and 90000 cps, respectively. The EC50 with recombinant mouse TIMP-3 was 306 nM; in test [4] it was 191 nM; in the test with recombinant human TIMP-3 [8], 100 nM; in test [10], 193 nM; with recombinant human TIMP-3 [9] it was 510 nM. Further, the “% of the inhibitory activity … 16 nM” value in the test with recombinant human TIMP-3 [6] came out at 95%. Moreover, the “% of the inhibitory activity … 80 nM” value with recombinant human TIMP-3 [6] was found to be 82%. For the same molecule, the “% of the inhibitory activity … 400 nM” value with recombinant human TIMP-3 [6] stood at 83%. Besides, the “% of the inhibitory activity … 2000 nM” value with recombinant human TIMP-3 [6] amounted to 91%.

B7: LRP-1 peptide LA3-5 (peptide)
chain: not shown
notes: as for B2
For the molecule B7, the entries for the “total signal (cps)” value in [2] and in test [5] were 9000 cps and 4000 cps, respectively. The EC50 with recombinant mouse TIMP-3 amounted to 71 nM; in test [4], 214 nM; with recombinant human TIMP-3 [8], 8 nM; in test [10] it was 52.5 nM; with recombinant human TIMP-3 [9], 78 nM. In addition, the “% of the inhibitory activity … 16 nM” value with recombinant human TIMP-3 [6] came to 104%. Further, in the test with recombinant human TIMP-3 [6], the “% of the inhibitory activity … 80 nM” value amounted to 101%. In addition, in the test with recombinant human TIMP-3 [6], the “% of the inhibitory activity … 2000 nM” value was determined as 101%. Further, the “Direct Inhibition of MMP13 (% decrease), 1000 nM” value with MMP-13 [7] is 2%.

What is called EC50 is the concentration at which the effect is half-maximal.
